B1: E3 ubiquitin-protein ligase RNF146 (Homo sapiens), Q9NTX7 (parent)
chain: MMAGCGEIDHSINMLPTNRKANESCSNTAPSLTVPECAICLQTCVHPVSLPCKHVFCYLCVKGASWLGKRCALCRQEIPEDFLDKPTLLSPEELKAASRGNGEYAWYYEGRNGWWQYDERTSRELEDAFSKGKKNTEMLIAGFLYVADLENMVQYRRNEHGRRRKIKRDIIDIPKKGVAGLRLDCDANTVNLARESSADGADSVSAQSGASVQPLVSSVRPLTSVDGQLTSPATPSPDASTSLEDSFAHLQLSGDNTAERSHRGEGEEDHESPSSGRVPAPDTSIEETESDASSDSEDVSAVVAQHSLTQQRLLVSNANQTVPDRSDRSGTDRSVAGGGTVSVSVRSRRPDGQCTVTEV

Variants of: B1
Settings: with tnks1_human TNKS

Variant | effect of a mutation on the interaction
G200V;G338V;G339V | decreasing interaction strength
G200V | decreasing interaction strength

Variants of: B1
Settings: with tnks1_human TNKS
Remark: another data set of the same source

Variant | effect of a mutation on the interaction
G338V;G339V | decreasing interaction strength

From IntAct's records for PubMed 25327252
